Reference: PMC11700871 (Theranostics, 2025)
Read-outs that look alike come from different tables or passages of the source. Each block holds one compound with its values, some of them ahead of it. Where a SMILES comes first, the peptide text is derived from it. The star is where a group is joined. X1 = O=C(O)c1cc(N*)ccc1O

What was measured:
Cat-B = biological target: T1, Cat-B (Homo sapiens, UniProt P07858); assay: Enzyme-specific cleavage by HPLC, Cat-B; assay type: in vitro ADME; details: 1 h, pH 5.5 MES buffer, 37°C, HPLC and LC/MS
T1 construct: purchased R&D systems 953CY
Description: (§1) After a 30 min reaction, the final product was purified and analyzed using an LC/MS system (Agilent 1200 Series HPLC system). The hydrodynamic size and zeta potential were analyzed by using a Zetasizer (Nano ZS, Malvern Instruments, Worcestershire, UK). The morphology of SPNs in distilled water was observed using transmission electron microscopy (CM-200, Philips, USA). The target enzyme-specific cleavage was evaluated through HPLC analysis after incubation with Cat-B (953CY, R&D systems, MN, USA), Cat-E (1294-AS, R&D systems), Cat-D (1014-AS, R&D systems), Cat-L (952-CY, R&D systems), MMP-9 (911-MP, R&D systems) or Cas-3 (707-C3/CF, R&D systems) in pH 5.5 2-(N-morpholino)ethane sulfonic acid (MES) buffer at 37°C.

Cat-D = biological target: T2, Cat-D (Homo sapiens, UniProt P07339); assay: Enzyme-specific cleavage by HPLC, Cat-D; assay type: in vitro ADME; details: 24 h, pH 5.5 MES buffer, 37°C
T2 construct: purchased R&D systems 1014-AS
Description: as §1

Cat-E = biological target: T3, Cat-E (Homo sapiens, UniProt P14091); assay: Enzyme-specific cleavage by HPLC, Cat-E; assay type: in vitro ADME; details: 24 h, pH 5.5 MES buffer, 37°C
T3 construct: purchased R&D systems 1294-AS
T3 sequence (P14091 54-396): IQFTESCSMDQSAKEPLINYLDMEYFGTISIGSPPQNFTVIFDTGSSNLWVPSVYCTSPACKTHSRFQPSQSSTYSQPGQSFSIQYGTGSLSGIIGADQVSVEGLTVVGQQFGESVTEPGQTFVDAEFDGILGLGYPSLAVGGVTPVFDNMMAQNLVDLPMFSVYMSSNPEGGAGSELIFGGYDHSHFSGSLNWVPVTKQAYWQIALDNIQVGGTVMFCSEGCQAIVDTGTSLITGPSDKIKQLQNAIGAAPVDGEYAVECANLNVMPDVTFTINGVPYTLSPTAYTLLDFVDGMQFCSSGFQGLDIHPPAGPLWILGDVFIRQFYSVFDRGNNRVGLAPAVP
Description: as §1

Cat-L = biological target: T4, Cat-L (Homo sapiens, UniProt P07711); assay: Enzyme-specific cleavage by HPLC, Cat-L; assay type: in vitro ADME; details: 24 h, pH 5.5 MES buffer, 37°C
T4 construct: purchased R&D systems 952-CY
Description: as §1

Caspase 3 (Cas-3) = biological target: T5, Caspase 3 (Cas-3) (Homo sapiens, UniProt P42574); assay: Enzyme-specific cleavage by HPLC, Caspase 3; assay type: in vitro ADME; details: 24 h, pH 5.5 MES buffer, 37°C
T5 construct: purchased R&D systems 707-C3/CF
T5 sequence (P42574 29-175 limits assumed): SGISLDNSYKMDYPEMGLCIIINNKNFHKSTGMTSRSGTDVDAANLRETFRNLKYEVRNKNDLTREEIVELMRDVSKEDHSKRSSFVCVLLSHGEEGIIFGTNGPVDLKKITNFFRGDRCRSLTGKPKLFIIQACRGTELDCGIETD
T5 sequence (P42574 176-277 limits assumed): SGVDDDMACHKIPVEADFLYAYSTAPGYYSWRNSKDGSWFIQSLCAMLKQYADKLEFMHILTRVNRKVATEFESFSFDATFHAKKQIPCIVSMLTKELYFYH
Description: as §1

[1] = biological target: T6, matrix metalloproteinase 9 (MMP-9) (Homo sapiens, UniProt P14780); assay: Enzyme-specific cleavage by HPLC, MMP-9; assay type: in vitro ADME; details: 24 h, pH 5.5 MES buffer, 37°C
T6 construct: purchased R&D systems 911-MP
Description: as §1

LO-2 cells [2] = assay: Cytotoxicity assay (CCK-8), LO-2; assay type: cell-based, human; details: 0 to 20 mM, 24 h, compared with mesalamine
MIHA cells = assay: Cytotoxicity assay (CCK-8), MIHA; assay type: cell-based, human; details: 0 to 20 mM, 24 h, compared with mesalamine
HepG2 cells = assay: Cytotoxicity assay (CCK-8), HepG2; assay type: cell-based; details: 0 to 20 mM, 24 h, compared with mesalamine
normal C57BL/6 mice = details: mouse, in vivo
Description: The body weight was measured every two days. Seven days after treatment, the hematological parameters were assessed, including AST, ALT, BUN, creatinine, LDH, CK, red blood cell (RBC), hemoglobin (HGB), hematocrit (HCT), platelet (PLT), white blood cell (WBC), neutrophil (NEU) and lymphocyte (LYM). Major organs were collected from the mice and then observed using optical microscopy after H&E staining (BX 51, Olympus, USA). The levels of TNF-α, IL-1β and IL-6 in homogenized kidney tissues were quantified via ELISA assays.

healthy LO-2 cells [3] = system: healthy LO-2 cells
Description: (§2) The cells were then washed with DPBS and dispersed in lysis buffer, followed by centrifugation at 12,000 rpm for 30 min to remove cell debris. Subsequently, the proteins were quantified using a BCA assay kit (23221, Thermo Fisher Scientific), boiled after mixing with sodium dodecyl sulfate loading buffer (NaraBio, Gyeonggi-do, Republic of Korea) for 5 min, and separated by 10% SDS polyacrylamide gel electrophoresis. […] HMGB1 and HSP70 were analyzed in the supernatants after incubating LO-2 cells using the same protocol described above. Finally, the membranes were incubated with goat anti-rabbit immunoglobulin-HRP antibody for 2 h.

APAP-induced ALF model = assay: Therapeutic efficacy in APAP-induced ALF mouse model; assay type: in vivo, C57BL/6 mice; details: ALF mice
Description: The in vivo therapeutic efficacy of SPNs was evaluated in an APAP-induced ALF model.
Following 24 h of treatment, liver tissue was collected from the mice and then stained with H&E, fluorescent dye-conjugated antibodies (TNF-α, 506303, Biolegend; IL-6, 504503, Biolegend; and IL-10, 505005, Biolegend) or TUNEL (G3250, Promega). A portion of the liver tissues was dispersed in lysis buffer and subsequently centrifuged to remove debris, followed by western blot for MAPK and assessment of cytokines, such as TNF-α, IL-6, IL-1β and IL-10, via ELISA assays. Hematological parameters were analyzed by KNOTUS (Incheon, Republic of Korea).

[4] = Biodistribution by NIRF imaging in naive and ALF mice; assay type: in vivo, C57BL/6 mice; details: ALF mice, intravenous
Description: The in vivo behavior of SPNs was assessed in healthy mice and APAP-induced ALF models. […] Fluorescence intensity in the images was quantified using LivingImage software. Ex vivo NIRF imaging was conducted with major organs collected from the mice 9 h post-treatment.

healthy LO-2 cells [5] = assay: Release of DAMPs (HMGB1, HSP70) from healthy hepatocytes; details: supernatants, western blot
Description: as §2

LO-2 cells [6] = assay: Expression of Cat-B and CHOP in hepatocytes after drug exposure; assay type: cell-based, human; details: LO-2 cells after treatment with APAP
Text: We initially investigated the changes within human hepatocytes in response to drug exposure.

T4 sequence (P07711 114-333): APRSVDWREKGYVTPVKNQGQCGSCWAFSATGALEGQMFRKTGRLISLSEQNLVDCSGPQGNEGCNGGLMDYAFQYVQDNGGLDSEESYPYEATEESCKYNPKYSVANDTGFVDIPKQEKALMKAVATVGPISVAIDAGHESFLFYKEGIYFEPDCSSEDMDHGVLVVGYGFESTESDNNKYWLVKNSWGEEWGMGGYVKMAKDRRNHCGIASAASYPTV
T2 sequence (P07339 65-412): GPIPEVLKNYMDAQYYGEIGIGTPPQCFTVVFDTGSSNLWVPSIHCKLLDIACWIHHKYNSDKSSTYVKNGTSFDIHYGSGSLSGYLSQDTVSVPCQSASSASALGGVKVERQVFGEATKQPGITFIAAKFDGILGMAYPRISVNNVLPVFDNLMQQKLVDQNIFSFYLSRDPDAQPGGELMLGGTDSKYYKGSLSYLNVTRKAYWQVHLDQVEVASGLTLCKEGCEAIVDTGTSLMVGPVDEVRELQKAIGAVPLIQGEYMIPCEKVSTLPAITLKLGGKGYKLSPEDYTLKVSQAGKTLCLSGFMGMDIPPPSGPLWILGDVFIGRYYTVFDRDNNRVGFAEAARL
T6 sequence (P14780 94-707): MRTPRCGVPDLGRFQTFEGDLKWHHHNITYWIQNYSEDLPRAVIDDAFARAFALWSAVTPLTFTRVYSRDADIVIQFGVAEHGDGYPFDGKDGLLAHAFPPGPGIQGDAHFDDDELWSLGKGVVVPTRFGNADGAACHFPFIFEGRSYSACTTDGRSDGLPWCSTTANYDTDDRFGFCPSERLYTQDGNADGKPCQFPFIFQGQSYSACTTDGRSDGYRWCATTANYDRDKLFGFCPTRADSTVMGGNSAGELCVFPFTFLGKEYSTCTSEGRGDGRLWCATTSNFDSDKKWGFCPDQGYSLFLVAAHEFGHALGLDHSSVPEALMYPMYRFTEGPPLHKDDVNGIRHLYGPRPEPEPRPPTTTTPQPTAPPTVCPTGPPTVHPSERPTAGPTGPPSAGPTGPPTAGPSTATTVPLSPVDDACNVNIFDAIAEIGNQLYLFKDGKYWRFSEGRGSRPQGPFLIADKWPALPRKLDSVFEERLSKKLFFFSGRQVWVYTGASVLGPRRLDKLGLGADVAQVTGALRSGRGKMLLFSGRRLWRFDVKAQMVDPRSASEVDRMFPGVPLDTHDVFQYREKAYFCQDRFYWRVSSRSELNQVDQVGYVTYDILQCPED

Compound: CC(=O)N[C@@H](Cc1ccccc1)C(=O)N[C@@H](CCCNC(=N)N)C(=O)N[C@@H](CCCNC(=N)N)C(=O)NCC(=O)Nc1ccc(O)c(C(=O)O)c1 [SPNs] (Ac-FRRG-X1)
- cleavage upon incubation with Cat-B (Cat-B): completely decomposed into mesalamine
- cleavage upon incubation with Cat-D (Cat-D): no detectable cleavage
- cleavage upon incubation with Cat-E (Cat-E): no detectable cleavage
- cleavage upon incubation with Cat-L (Cat-L): no detectable cleavage
- cleavage upon incubation with Cas-3 (Caspase 3 (Cas-3)): no detectable cleavage
- cleavage upon incubation with MMP-9 [1]: no detectable cleavage
- toxicity to LO-2 cells (cell viability) (LO-2 cells [2]): significantly minimized the toxicity of mesalamine
- toxicity to MIHA cells (cell viability) (MIHA cells): significantly minimized the toxicity of mesalamine
- toxicity to HepG2 cells (cell viability) (HepG2 cells): significantly minimized the toxicity of mesalamine
- histopathological toxicities in major organs (normal C57BL/6 mice): not observed
- release of DAMPs (HMGB1 and HSP70) (healthy LO-2 cells [3]): did not increase DAMP release

Compound: CC(=O)N[C@@H](CS)C(=O)O [NAC, N-acetylcysteine]
- effects in preventing body weight loss and histohematological changes (APAP-induced ALF model; NAC 100 mg/kg i.v., compared with SPNs): limited effects

- in vivo clearance (NIRF imaging) [4]: rapid in vivo clearance
Compound: CCN1\C(=C/C=C/C=C/C2=[N+](CCCCCC(=O)O)c3ccc4c(S(=O)(=O)O)cc(S(=O)(=O)O)cc4c3C2(C)C)C(C)(C)c2c1ccc1c(S(=O)(=O)[O-])cc(S(=O)(=O)O)cc21 [free Cy5.5]

Compound: Nc1ccc(O)c(C(=O)O)c1 [mesalamine]
- body weight change (APAP-induced ALF model; 24 h of treatment, mesalamine or SPNs 5 mg/kg mesalamine content i.v.): even more severe weight loss relative to the PBS group
- AST and ALT levels (APAP-induced ALF model; 24 h post-treatment, 5 mg/kg mesalamine content i.v.): higher levels of these parameters compared to the PBS group
- histopathological toxicities in major organs (normal C57BL/6 mice): substantial structural abnormalities and damaged areas in major organs
- release of DAMPs (HMGB1 and HSP70) (healthy LO-2 cells [5]): significantly higher levels

Compound: CC(=O)Nc1ccc(O)cc1 [APAP, acetaminophen]
- Cat-B level compared to the naive cells (LO-2 cells [6]): 4.22 fold
- increase in C/EBP homologous protein (CHOP) compared to the naive cells (LO-2 cells [6]): 1.58 fold
